The target of the test is LuS-N71-SpyTag (Aquifex aeolicus lumazine synthase nanoparticle with a glycan at N71 and SpyTag at the N-terminus) (Aquifex aeolicus).

One substance from article doi:10.1101/2020.06.11.147496 can be followed below.

In turn, “SARS-CoV-2 spike-SpyCatcher (prefusion-stabilized SARS-CoV-2 spike trimer fused with a C-terminal SpyCatcher)” displayed a percent of nanoparticle subunits conjugated of 91%.
